The target of assay [1] is Aβ42 F19,20T/I31P MRF (AβMRF carrying the triple mutation Phe19,20Thr and Ile31Pro in its Aβ42 portion) (not stated | S. cerevisiae) (UniProt P05453). Description: SDS electrophoresis of SDS-stable oligomers with immunoblot; yeast lysates treated with 1% SDS for 7 min at room temperature, resolved in 1.5% agarose or 7.5% polyacrylamide gels, blotted with anti-RF (BE4) or anti-Aβ (6E10); cells also grown with 6.3 mM guanidine or with HSP104 deleted; densitometry. Background: A western blot detects proteins with antibodies after separation by electrophoresis.

For assay [2], the target named is AβMRF (met-Aβ42-HA-M-3xHA-RF; Aβ42 fused to the N terminus of Sup35p MRF) (not stated | S. cerevisiae) (UniProt P05453). Described as above.

“And” between values parts separate entries of the source, which are not always exact repeats. Equal entries are not always repeated.

The term stoichiometry N denotes the number of molecules, sites or subunits per partner or assembly.

Substance “Aβ42 F19,20T/I31P MRF (AβMRF carrying the triple mutation Phe19,20Thr and Ile31Pro in its Aβ42 portion) (from UniProt P05453 124-685)” registered a stoichiometry N in assay [1] of 2.

Regarding “AβMRF (met-Aβ42-HA-M-3xHA-RF; Aβ42 fused to the N terminus of Sup35p MRF) (from UniProt P05453 124-685)”, in assay [2], the monomer's share of the pool (HSP104 WT cells) was 34%; the monomer's share of the pool (hsp104Δ cells) was determined as 47%; the stoichiometry N was 2 and 3 and 4.
